From article PMC4714197, “The Tomato Nucleotide-binding Leucine-rich Repeat Immune Receptor I-2 Couples DNA-binding to Nucleotide-binding Domain Nucleotide Exchange” (The Journal of Biological Chemistry, 2015)
Values belong to the molecule of their own block, whether it stands above or below them.

Tests used:
I-2_1–519 [1] = target: T1, I-2_1–519 (Solanum lycopersicum, UniProt Q9XET3, S233F); assay: EMSA of […]-dsDNA binding with nucleotide; details: 5 uM ADP compared with 5 uM ATP; 10 mM ZnCl2, pH 8.0, on ice
T1 construct: gene I2; CC-NB-ARC domains, residues 1-519, LRR lacking

I-2_1–519 [2] = target: T2, I-2_1–519 (Solanum lycopersicum, UniProt Q9XET3); assay: EMSA of […]-dsDNA binding with nucleotide; details: 5 uM ADP, 10 mM ZnCl2, pH 8.0, on ice; ADP lowers DNA binding
T2 construct: gene I2; CC-NB-ARC domains, residues 1-519, LRR lacking

I-2_1–519 [3] = target: T2, I-2_1–519; assay: ATPase assay, 3H-ATP, TLC; type: biochemical; details: 5 uM ATP, 10 mM MgCl2, pH 7.5, 37 °C; without and with 2 uM DNA; labelled compound
[4] = test system: R1-NB (NB subdomain of Os02g_25900) (Oryza sativa (rice)); assay: EMSA; details: apparent Kd; EMSA: 20 mM Tris-HCl pH 8.0, 60 mM NaCl, 2 mM EDTA, 1 mM DTT, 10% glycerol, 0.1 mg/ml BSA, 0.15 nM nucleic acid, 20 min on ice (nucleotide tests + 10 mM ZnCl2 …)
[5] = target: T3, I-2 CC-NB-ARC WT (I-2 1-519) (Solanum lycopersicum (tomato), UniProt Q9XET3 1-519); assay: EMSA; apparent Kd; EMSA: 20 mM Tris-HCl pH 8.0, 60 mM NaCl, 2 mM EDTA, 1 mM DTT, 10% glycerol, 0.1 mg/ml BSA, 0.15 nM nucleic acid, 20 min on ice (nucleotide tests + 10 mM ZnCl2 as printed); anisotropy: 6.7 mM Tris-HCl pH 8.0, 3.3 mM Na acetate, 2 mM EDTA, 10 nM DNA, 25 C; P1: 20 mM Tris acetate pH 7.5, 10 mM Mg acetate, 100 mM NaCl, 37 C; details: protein: recombinant, label: 32P end label
T3 sequence: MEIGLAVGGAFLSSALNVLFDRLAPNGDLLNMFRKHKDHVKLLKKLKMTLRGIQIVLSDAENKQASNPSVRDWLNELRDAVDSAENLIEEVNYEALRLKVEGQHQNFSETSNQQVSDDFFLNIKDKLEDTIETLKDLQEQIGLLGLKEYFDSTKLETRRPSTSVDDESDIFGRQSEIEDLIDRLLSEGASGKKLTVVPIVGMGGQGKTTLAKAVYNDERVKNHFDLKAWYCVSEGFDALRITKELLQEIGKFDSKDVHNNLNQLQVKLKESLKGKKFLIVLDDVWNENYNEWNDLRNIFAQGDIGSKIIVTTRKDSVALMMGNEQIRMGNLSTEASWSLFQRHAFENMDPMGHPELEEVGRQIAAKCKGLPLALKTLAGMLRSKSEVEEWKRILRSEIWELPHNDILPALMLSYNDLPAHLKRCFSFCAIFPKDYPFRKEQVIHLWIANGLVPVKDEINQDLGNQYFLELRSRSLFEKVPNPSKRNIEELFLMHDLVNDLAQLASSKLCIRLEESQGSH

[6] = target: T3, I-2 CC-NB-ARC WT (I-2 1-519); assay: EMSA; 5 uM ATP, 10 mM ZnCl2 (so in the source); EMSA: 20 mM Tris-HCl pH 8.0, 60 mM NaCl, 2 mM EDTA, 1 mM DTT, 10% glycerol, 0.1 mg/ml BSA, 0.15 nM nucleic acid, 20 min on ice (nucleotide tests + 10 mM ZnCl2 as printed); anisotropy: 6.7 mM Tris-HCl pH 8.0, 3.3 mM Na acetate, 2 mM EDTA, 10 nM DNA, 25 C; P1: 20 mM Tris acetate pH 7.5, 10 mM Mg acetate, 100 mM NaCl, 37 C; details: protein: recombinant; label: 32P end label; blunt
I-2 CC-NB-ARC K207R [7] = target: T4, I-2 CC-NB-ARC K207R (Solanum lycopersicum (tomato), UniProt Q9XET3 1-519, K207R); assay: EMSA; apparent Kd; EMSA: 20 mM Tris-HCl pH 8.0, 60 mM NaCl, 2 mM EDTA, 1 mM DTT, 10% glycerol, 0.1 mg/ml BSA, 0.15 nM nucleic acid, 20 min on ice (nucleotide tests + 10 mM ZnCl2 as printed); anisotropy: 6.7 mM Tris-HCl pH 8.0, 3.3 mM Na acetate, 2 mM EDTA, 10 nM DNA, 25 C; P1: 20 mM Tris acetate pH 7.5, 10 mM Mg acetate, 100 mM NaCl, 37 C; details: protein: recombinant; label: 32P end label; blunt
T4 sequence: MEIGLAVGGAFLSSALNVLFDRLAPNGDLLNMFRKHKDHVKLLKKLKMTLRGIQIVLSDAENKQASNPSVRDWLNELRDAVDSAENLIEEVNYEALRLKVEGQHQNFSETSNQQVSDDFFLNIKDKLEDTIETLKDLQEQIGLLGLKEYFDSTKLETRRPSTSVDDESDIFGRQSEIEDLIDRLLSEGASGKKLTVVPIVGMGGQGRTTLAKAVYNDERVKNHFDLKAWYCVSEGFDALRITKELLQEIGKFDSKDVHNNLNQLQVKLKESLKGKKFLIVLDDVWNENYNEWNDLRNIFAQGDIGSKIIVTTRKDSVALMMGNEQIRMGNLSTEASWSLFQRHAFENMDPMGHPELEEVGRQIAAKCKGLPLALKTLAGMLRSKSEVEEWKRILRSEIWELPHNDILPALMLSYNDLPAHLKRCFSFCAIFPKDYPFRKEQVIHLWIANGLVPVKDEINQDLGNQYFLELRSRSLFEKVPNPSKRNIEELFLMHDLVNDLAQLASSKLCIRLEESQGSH

I-2 CC-NB-ARC S233F = target: T5, I-2 CC-NB-ARC S233F (Solanum lycopersicum (tomato), UniProt Q9XET3 1-519, S233F); assay: EMSA; indistinguishable from WT; EMSA: 20 mM Tris-HCl pH 8.0, 60 mM NaCl, 2 mM EDTA, 1 mM DTT, 10% glycerol, 0.1 mg/ml BSA, 0.15 nM nucleic acid, 20 min on ice (nucleotide tests + 10 mM ZnCl2 as printed); anisotropy: 6.7 mM Tris-HCl pH 8.0, 3.3 mM Na acetate, 2 mM EDTA, 10 nM DNA, 25 C; P1: 20 mM Tris acetate pH 7.5, 10 mM Mg acetate, 100 mM NaCl, 37 C; details: protein: recombinant; label: 32P end label; blunt
T5 sequence: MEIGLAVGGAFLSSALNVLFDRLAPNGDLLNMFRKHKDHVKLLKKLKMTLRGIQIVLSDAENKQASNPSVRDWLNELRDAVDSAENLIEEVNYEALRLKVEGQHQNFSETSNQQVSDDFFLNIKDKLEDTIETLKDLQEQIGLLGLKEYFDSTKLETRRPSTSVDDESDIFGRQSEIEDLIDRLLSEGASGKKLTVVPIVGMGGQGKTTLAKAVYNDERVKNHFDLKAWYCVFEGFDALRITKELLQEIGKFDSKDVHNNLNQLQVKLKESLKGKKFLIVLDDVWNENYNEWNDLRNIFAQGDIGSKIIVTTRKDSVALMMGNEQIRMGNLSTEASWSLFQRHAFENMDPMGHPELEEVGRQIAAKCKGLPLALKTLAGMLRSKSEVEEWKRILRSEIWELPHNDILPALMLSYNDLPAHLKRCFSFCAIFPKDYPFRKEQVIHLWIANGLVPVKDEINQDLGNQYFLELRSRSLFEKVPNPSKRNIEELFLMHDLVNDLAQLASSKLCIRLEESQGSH

[8] = target: T3, I-2 CC-NB-ARC WT (I-2 1-519); assay: fluorescence anisotropy; EMSA: 20 mM Tris-HCl pH 8.0, 60 mM NaCl, 2 mM EDTA, 1 mM DTT, 10% glycerol, 0.1 mg/ml BSA, 0.15 nM nucleic acid, 20 min on ice (nucleotide tests + 10 mM ZnCl2 as printed); anisotropy: 6.7 mM Tris-HCl pH 8.0, 3.3 mM Na acetate, 2 mM EDTA, 10 nM DNA, 25 C; P1: 20 mM Tris acetate pH 7.5, 10 mM Mg acetate, 100 mM NaCl, 37 C; details: protein: recombinant; label: fluorescein end label on SS1s; blunt
I-2 CC-NB-ARC K207R [9] = target: T4, I-2 CC-NB-ARC K207R; assay: as above; details: protein: recombinant; label: fluorescein end label on SS1s; blunt

% DNA binding with ADP relative to ATP (I-2_1–519 [1]): 61 ± 7%
ratio of DNA binding with ADP vs with ATP or no nucleotide (I-2_1–519 [2]): ~ 0.65
Molecule: Nc1ncnc2c1ncn2[C@@H]1O[C@H](COP(=O)(O)OP(=O)(O)O)[C@@H](O)[C@H]1O [ADP]

Molecule: Nc1ncnc2c1ncn2[C@@H]1O[C@H](COP(=O)(O)OP(=O)(O)OP(=O)(O)O)[C@@H](O)[C@H]1O [ATP]
ATPase activity (I-2_1–519 [3]): The CC-NB-ARC domain of I-2 has a very low intrinsic ATPase activity in vitro

Molecule: TGGGTCAACGTGGGCAAAGATGTCCTAGCAATGTAATCGTCTATGACGTT (double strand) [SS1/SS2 dsDNA (50 bp)]
Kd [4]: 2.75 µM

Molecule: UGGGUCAACGUGGGCAAAGAUGUCCUAGCAAUGUAAUCGUCUAUGACGUU [ssRNA sense strand (50 nt)]
Kd [4]: 12.5 µM

Molecule: TGGGTCAACGTGGGCAAAGATGTCCTAGCAATGTAATCGTCTATGACGTT [SS1 ssDNA (50 nt)]
Kd [4]: 3.34 µM

Molecule: TGGGTCAACGTGGGCAAAGATGTCCTAGCAATGTAATCGTCTATGACGTT (ssDNA) [SS1 ssDNA (50 nt)]
Kd ([5]; single strand): 0.15 ± 0.01 µM

B1: SS1/SS2 dsDNA (50 bp) (dsDNA)
DNA 1: TGGGTCAACGTGGGCAAAGATGTCCTAGCAATGTAATCGTCTATGACGTT
DNA 2: AACGTCATAGACGATTACATTGCTAGGACATCTTTGCCCACGTTGACCCA
binding signal [6]: ~1 ratio to no nucleotide
Kd ([5]; blunt): 0.22 ± 0.02 µM
Kd (I-2 CC-NB-ARC K207R [7]): 0.23 ± 0.01 µM
binding result (I-2 CC-NB-ARC S233F): binds

B2: SS1s/SS2s dsDNA (20 bp), anisotropy (dsDNA)
DNA 1: TGGGTCAACGTGGGCAAAGA
DNA 2: TCTTTGCCCACGTTGACCCA
Kd [8]: 0.32 ± 0.05 µM
Kd (I-2 CC-NB-ARC K207R [9]): 0.94 ± 0.09 µM
